In patent publication US20160109459A1, “Compositions And Methods For Heparan Sulfate As A Biomarker For Transplant Rejection” (Duke University, priority 2012, published 2016):

Biological target: T1, human TLR4 (Homo sapiens, UniProt O00206)
T1 construct: expressed in transfected cells; host or cells: HEK 293 (gift from Dr. Michael Fessler, NIEHS)
Experiment: IL-8 production by ELISA in HEK TLR4-MD2-CD14 cells
Assay type: cell-based
Conditions: HS pre-treated with heparanase
Procedure: HEK cell lines stably expressing CD14 and MD2 alone (HEK MD2-CD14), or co-expressed with human TLR2 (HEK TLR2-MD2-CD14) or human TLR4 (HEK TLR4-MD2-CD14) were transfected with a plasmid encoding firefly luciferase (F) under control of the NF-κB promoter along with a plasmid expressing Renilla luciferase (R) under control of the thymidine kinase promoter as a transfection control. Cell lines were cultured for 6 hours with media alone, LPS (100 ng/mL), HS (100 μg/mL), or Pam3CSK4 (2 μg/mL). […] FIG. 5B is a graph showing results supernatants analyzed for IL-8 production by ELISA. […] Experiments were performed in triplicate or quadruplicate. Results are representative of two to three independent experiments.
HEK 293 cell lines co-expressing human CD14, MD2 and TLR4 or TLR2 were a kind gift from Dr. Michael Fessler (NIEHS, Research Triangle Park, N.C., USA). […]
Thus, to determine whether if TLR4 was sufficient for HS activity, the ability of HS to activate human epithelial kidney (HEK) cell lines stably transfected to express human TLR4 or human TLR2 in addition to the co-receptors CD14 and MD2 was tested. […] The ratio of luminescence produced by firefly luciferase to Renilla luciferase (F/R) was then measured in response to media alone, LPS, HS, and Pam3CSK4. The production of IL-8, which is downstream of NF-κB activation, by ELISA was also measured. […]

T1 sequence (O00206 24-839): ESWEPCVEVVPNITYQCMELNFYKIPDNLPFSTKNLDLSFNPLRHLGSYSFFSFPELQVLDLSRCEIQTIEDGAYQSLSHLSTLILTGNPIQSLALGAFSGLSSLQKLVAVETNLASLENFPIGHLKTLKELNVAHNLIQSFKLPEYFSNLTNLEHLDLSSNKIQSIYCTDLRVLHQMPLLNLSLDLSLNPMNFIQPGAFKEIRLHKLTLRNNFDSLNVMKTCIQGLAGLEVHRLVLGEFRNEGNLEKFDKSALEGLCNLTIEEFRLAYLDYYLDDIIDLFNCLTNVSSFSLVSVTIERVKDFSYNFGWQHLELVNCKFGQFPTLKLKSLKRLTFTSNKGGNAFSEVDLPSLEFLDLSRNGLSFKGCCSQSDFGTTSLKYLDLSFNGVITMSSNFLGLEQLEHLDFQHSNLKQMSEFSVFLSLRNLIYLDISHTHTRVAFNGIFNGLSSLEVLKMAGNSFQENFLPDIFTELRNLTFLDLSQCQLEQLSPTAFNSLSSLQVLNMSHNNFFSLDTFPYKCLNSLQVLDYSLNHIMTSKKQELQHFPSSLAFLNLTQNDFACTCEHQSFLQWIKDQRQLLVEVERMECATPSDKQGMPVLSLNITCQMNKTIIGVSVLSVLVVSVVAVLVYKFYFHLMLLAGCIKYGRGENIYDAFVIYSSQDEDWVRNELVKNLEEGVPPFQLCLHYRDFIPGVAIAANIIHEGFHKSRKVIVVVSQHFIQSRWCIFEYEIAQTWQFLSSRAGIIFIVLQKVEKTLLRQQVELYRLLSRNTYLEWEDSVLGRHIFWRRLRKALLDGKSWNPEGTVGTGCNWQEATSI
T1 sequence (Q9Y6Y9 17-160 partner limits assumed): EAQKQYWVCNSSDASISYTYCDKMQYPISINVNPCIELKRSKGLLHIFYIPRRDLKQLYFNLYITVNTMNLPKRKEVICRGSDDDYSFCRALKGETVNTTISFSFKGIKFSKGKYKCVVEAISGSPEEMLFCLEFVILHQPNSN

B1: Heparanase: heparinase III from Flavobacterium heparinum (Sigma), enzyme that degrades heparan sulfate (protein, UniProt Q59289 25-659, looked up)
Heparin-sulfate lyase: QSSSITRKDFDHINLEYSGLEKVNKAVAAGNYDDAAKALLAYYREKSKAREPDFSNAEKPADIRQPIDKVTREMADKALVHQFQPHKGYGYFDYGKDINWQMWPVKDNEVRWQLHRVKWWQAMALVYHATGDEKYAREWVYQYSDWARKNPLGLSQDNDKFVWRPLEVSDRVQSLPPTFSLFVNSPAFTPAFLMEFLNSYHQQADYLSTHYAEQGNHRLFEAQRNLFAGVSFPEFKDSPRWRQTGISVLNTEIKKQVYADGMQFELSPIYHVAAIDIFLKAYGSAKRVNLEKEFPQSYVQTVENMIMALISISLPDYNTPMFGDSWITDKNFRMAQFASWARVFPANQAIKYFATDGKQGKAPNFLSKALSNAGFYTFRSGWDKNATVMVLKASPPGEFHAQPDNGTFELFIKGRNFTPDAGVFVYSGDEAIMKLRNWYRQTRIHSTLTLDNQNMVITKARQNKWETGNNLDVLTYTNPSYPNLDHQRSVLFINKKYFLVIDRAIGEATGNLGVHWQLKEDSNPVFDKTKNRVYTTYRDGNNLMIQSLNADRTSLNEEEGKVSYVYNKELKRPAFVFEKPKKNAGTQNFVSIVYPYDGQKAPEISIRENKGNDFEKGKLNLTLTINGKQQLVLVP
  effect of pre-treatment on HS stimulation of IL-8 expression: significantly reduced
